# T1: recombinant cyno TfR1 (cynomolgus monkey (Macaca fascicularis), UniProt Q5RDH6 87-760 (Pongo abelii entry), limits assumed)
# T1 construct: Recombinant cynoTfR1 coated on ELISA plates; also called cTfR1; cynomolgus monkey TfR1
# T1 chain: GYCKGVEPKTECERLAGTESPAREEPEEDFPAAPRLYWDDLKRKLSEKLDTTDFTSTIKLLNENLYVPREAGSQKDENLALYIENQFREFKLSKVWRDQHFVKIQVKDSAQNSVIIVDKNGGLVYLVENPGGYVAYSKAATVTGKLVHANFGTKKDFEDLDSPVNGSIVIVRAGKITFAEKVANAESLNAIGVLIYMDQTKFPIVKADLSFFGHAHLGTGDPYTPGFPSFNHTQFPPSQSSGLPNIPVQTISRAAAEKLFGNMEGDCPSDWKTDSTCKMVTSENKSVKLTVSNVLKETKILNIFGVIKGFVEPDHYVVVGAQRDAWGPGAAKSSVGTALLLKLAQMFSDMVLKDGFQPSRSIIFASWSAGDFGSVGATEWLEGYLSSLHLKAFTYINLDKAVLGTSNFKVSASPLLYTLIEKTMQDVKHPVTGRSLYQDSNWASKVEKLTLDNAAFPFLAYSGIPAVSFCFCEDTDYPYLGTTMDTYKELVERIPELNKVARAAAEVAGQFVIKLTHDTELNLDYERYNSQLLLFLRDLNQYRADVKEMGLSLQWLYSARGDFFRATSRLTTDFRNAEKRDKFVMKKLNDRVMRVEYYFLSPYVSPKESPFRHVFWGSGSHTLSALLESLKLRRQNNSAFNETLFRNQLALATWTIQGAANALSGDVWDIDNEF
# B1: anti-TfR (VH of SEQ ID NO: 17 and VL of SEQ ID NO: 18) conjugated to a DMPK-targeting oligonucleotide (control DMPK-ASO) (antibody, V domains shown)
# VH: QVQLVQSGAEVKKPGESLKISCKGSGYSFTSYWIGWVRQMPGKGLEWMGIIYPGDSDTRYSPSFQGQVTISADKSISTAYLQWSSLKASDTAMYYCARFPYDSSGYYSFDYWGQGTLVTVSS
# VL: not shown
# modifications: DMPK-targeting antisense oligonucleotide linked through a cathepsin-cleavable Val-Cit linker to the ε-amine of lysine of the antibody (site and chain not stated)
# notes: In the uptake assay several different DMPK-targeting oligonucleotides were used and the conjugates were also labeled with Cypher5e; also called anti-TfR in conjugates with a DMPK targeting oligo; oligonucleotide-conjugated anti-TfR
# Legend:
# recombinant human TfR1 = target: T2, recombinant human TfR1 (human, UniProt P02786 89-760); test: ELISA, conjugate against unconjugated antibody
# T2 construct: Recombinant huTfR1 coated on ELISA plates or used in the immunoprecipitation; also called huTfR1; hTfR1
# recombinant cyno TfR1 = target: T1, recombinant cyno TfR1; test: ELISA, conjugate against unconjugated antibody
binder,measurement,setting,value
B1,fold increase of binding upon conjugation (against unconjugated anti-TfR),recombinant human TfR1,3 to 6 fold
same,fold increase of binding upon conjugation (against unconjugated anti-TfR),recombinant cyno TfR1,3 to 6 fold

# From patent US20230103793A1 (DYNE THERAPEUTICS, published 2023)
